# Assay results: PMC11493271, “The N-terminal activation function AF-1 domain of ERα interacts directly with the C-terminal AF-2-holding ligand-binding domain to recruit the coactivator proteins” (PLOS ONE, 2024)
# “Also recorded” adds a separate entry of the source.
# T1: full-length ERα (Homo sapiens, UniProt P03372)
# T1 construct: […]; host or cells: HeLa cells
# T1 sequence (P03372 1-595): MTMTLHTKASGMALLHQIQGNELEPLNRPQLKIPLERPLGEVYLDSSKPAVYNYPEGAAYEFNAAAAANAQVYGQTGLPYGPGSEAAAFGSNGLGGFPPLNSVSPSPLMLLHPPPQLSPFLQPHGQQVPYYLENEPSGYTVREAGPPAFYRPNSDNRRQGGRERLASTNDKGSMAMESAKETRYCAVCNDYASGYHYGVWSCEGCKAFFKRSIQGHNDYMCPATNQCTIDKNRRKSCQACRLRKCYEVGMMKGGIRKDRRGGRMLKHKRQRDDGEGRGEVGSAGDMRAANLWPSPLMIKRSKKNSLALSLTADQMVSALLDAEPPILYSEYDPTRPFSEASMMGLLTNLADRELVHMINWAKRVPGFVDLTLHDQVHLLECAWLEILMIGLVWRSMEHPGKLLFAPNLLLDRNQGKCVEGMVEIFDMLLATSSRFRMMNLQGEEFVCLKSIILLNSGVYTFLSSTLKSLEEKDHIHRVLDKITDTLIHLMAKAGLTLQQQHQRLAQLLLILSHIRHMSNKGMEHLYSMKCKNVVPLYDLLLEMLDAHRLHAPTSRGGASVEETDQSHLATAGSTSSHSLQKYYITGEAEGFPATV
# T2: desNTD(AF-1)-ERα (Homo sapiens, UniProt P03372)
# T2 sequence (P03372 181-595): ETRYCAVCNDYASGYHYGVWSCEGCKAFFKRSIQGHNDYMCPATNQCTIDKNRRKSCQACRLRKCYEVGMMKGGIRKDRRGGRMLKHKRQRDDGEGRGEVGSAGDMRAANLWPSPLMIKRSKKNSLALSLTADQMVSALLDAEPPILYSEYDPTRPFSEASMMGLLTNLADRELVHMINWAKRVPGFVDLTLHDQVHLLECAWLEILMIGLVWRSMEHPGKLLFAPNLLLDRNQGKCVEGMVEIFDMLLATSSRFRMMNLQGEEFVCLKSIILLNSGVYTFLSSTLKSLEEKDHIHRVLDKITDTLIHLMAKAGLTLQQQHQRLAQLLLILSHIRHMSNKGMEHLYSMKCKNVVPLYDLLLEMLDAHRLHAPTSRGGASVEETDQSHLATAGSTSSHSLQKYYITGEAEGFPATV
# How the values were obtained:
# [1] = biological target: desNTD(AF-1)-ERα, ERα C-terminal fragment with amino acid residues 181-595 (human) (UniProt P03372)
# [2] = biological target: full-length estrogen receptor alpha (ERα), wild type (1-595) (human) (UniProt P03372)
# [3] = biological target: full-length estrogen receptor alpha (ERα), wild type (1-595) (human) (UniProt P03372); remark: listed apart in the source
# full-length ERα = biological target: T1, full-length ERα; experiment: ERα-NTD(AF-1) inhibition assay: co-expression with full-length ERα, luciferase reporter gene assay in HeLa cells; type: cell-based; details: for effect on transcription activity of full-length ERα: plasmid 0.01–2.00 μg/well with full-length ERα 0.05 μg/well, E2 0.1, 1 or 50 nM, Fig 3
# Method: Other expression plasmids were used in fixed amounts: full-length ERα/pcDNA3.1 (0.05 μg/well), 3 × ERE/pGL3 (0.15 μg/well), and pGL4.74 (0.05 μg/well) (Table 1).
# Gene transfections followed by luciferase reporter gene assays were carried out basically as described above.
# Thus, each distinct maximal activity was evaluated precisely as a percentage.
# desNTD(AF-1)-ERα = biological target: T2, desNTD(AF-1)-ERα; experiment: Luciferase reporter gene assay for desNTD(AF-1)-ERα, alone or co-expressed with ERα-NTD(AF-1), in HeLa cells
# Method: (§1) The luciferase reporter gene assays were carried out exactly as described above.
# [4] = tested on: 3 × ERE/pGL3 luciferase reporter; experiment: Transcription activity of truncated ERα derivatives in the luciferase reporter gene assay (HeLa cells); details: plasmid 250 ng/well
# Method: as §1
Molecule,luciferase reporter gene assay in HeLa cells: apparent IC50 of the ERα-NTD(AF-1) plasmid (amount transfected per well of a 6-well microplate) for inhibition of desNTD(AF-1)-ERα [1] [ng/well],luciferase reporter gene assay in HeLa cells: apparent IC50 of the ERα-NTD(AF-1) plasmid (amount transfected per well of a 6-well microplate) for the activity of 10 nM E2 on full-length ERα [2] [ng/well],luciferase reporter gene assay in HeLa cells: IC50 of the ERα-NTD(AF-1) plasmid (amount transfected per well of a 6-well microplate) from the curve of the maximal activity of ERα/E2 [3] [ng/well],"IC50 from transfection amount vs maximal activity of ERα/E2 (full-length ERα; E2 dose-response maxima, plasmid per well of 6-well microplate, Fig 4C) [ng/well]",effect on transcription activity of full-length ERα (full-length ERα),"apparent IC50 for inhibition of full-length ERα (full-length ERα; residual activity of 10 nM E2, plasmid per well of 6-well microplate, Fig 4A) [ng/well]",mode of inhibition of full-length ERα (full-length ERα; with respect to E2),"reduction in E2-induced transactivation compared to desNTD(AF-1)-ERα alone (desNTD(AF-1)-ERα; ERα-NTD(AF-1): desNTD(AF-1)-ERα = 1:1, desNTD(AF-1)-ERα 250 ng/well) [%]",apparent IC50 for inhibition of desNTD(AF-1)-ERα (desNTD(AF-1)-ERα; plasmid amount per well of 6-well microplate used for transfection) [ng/well],reduction in E2-induced transactivation compared to desNTD(AF-1)-ERα alone (desNTD(AF-1)-ERα; ratio 2:1) [%],reduction in E2-induced transactivation compared to desNTD(AF-1)-ERα alone (desNTD(AF-1)-ERα; ratio 3:1) [%],reduction in E2-induced transactivation compared to desNTD(AF-1)-ERα alone (desNTD(AF-1)-ERα; ratio 4:1) [%],reduction in E2-induced transactivation compared to desNTD(AF-1)-ERα alone (desNTD(AF-1)-ERα; ratio 5:1) [%],reduction in E2-induced transactivation compared to desNTD(AF-1)-ERα alone (desNTD(AF-1)-ERα; ratio 6:1) [%],transcription activation (response to E2) ([4]; construct expressed alone),relative activity (% of wild-type full-length ERα) ([4]; maximal E2 activity) [%]
"ERα-NTD(AF-1), untethered free N-terminal fragment of estrogen receptor alpha (residues 1-180), non-tagged (from UniProt P03372 1-180) (domain or fragment)",863,836,631,,,,,,,,,,,,,
"ERα-NTD(AF-1): ERα N-terminal fragment with amino acid residues 1–180, expressed from plasmid ERα-NTD(AF-1)/pcDNA3.1 (protein) MTMTLHTKASGMALLHQIQGNELEPLNRPQLKIPLERPLGEVYLDSSKPAVYNYPEGAAYEFNAAAAANAQVYGQTGLPYGPGSEAAAFGSNGLGGFPPLNSVSPSPLMLLHPPPQLSPFLQPHGQQVPYYLENEPSGYTVREAGPPAFYRPNSDNRRQGGRERLASTNDKGSMAMESAK",,,,631,reduced in a dose-dependent manner,836,non-competitive inhibitor,~20,863,44,62,73,85,91,completely inactive; also recorded: completely devoid of transcription activation,0
"FLAG-ERα-NTD(AF-1): ERα-NTD(AF-1) tagged at the N-terminus with DYKDDDDK, a FLAG-epitope peptide (protein, left off: FLAG, N-terminal, kept) MTMTLHTKASGMALLHQIQGNELEPLNRPQLKIPLERPLGEVYLDSSKPAVYNYPEGAAYEFNAAAAANAQVYGQTGLPYGPGSEAAAFGSNGLGGFPPLNSVSPSPLMLLHPPPQLSPFLQPHGQQVPYYLENEPSGYTVREAGPPAFYRPNSDNRRQGGRERLASTNDKGSMAMESAK",,,,,inhibits full-length ERα,,,,,,,,,,,
